Experimental data published in US8026218 (UNIVERSITY OF ARIZONA, dated 2011).
Like-named read-outs stand apart in the source and are kept apart here. Bridge positions count the residues as written; N and C are the ends. Square brackets hold non-standard residues; d marks the D form. Ends that are not written are not given here. * marks the point of attachment. Glc = O-glucosyl on Ser side chain (Ser(OGlu)/Ser(OGlc)); NH(3,5-(CF3)2-benzyl) = FC(F)(F)c1cc(CN*)cc(C(F)(F)F)c1; OBzl(3,5-(CF3)2) = FC(F)(F)c1cc(CO*)cc(C(F)(F)F)c1; NH‑Bn(CF3)2 = C-terminal Bn(CF3)2 amide; Dmt = Cc1cc(O)cc(C)c1C[C@H](N)C(=O)O; Met(O) = CS(=O)CC[C@H](N)C(=O)O; NMe(benzyl) = CN(Cc1ccccc1)*; Nle = CCCC[C@H](N)C(=O)O; NHBn = c1ccc(CN*)cc1; OBn = c1ccc(CO*)cc1; βAla = NCCC(=O)O

B1: H-Tyr-D-Ala-Gly-Phe-Nle-Pro-Leu-Trp-O-3,5-Bzl(CF3)2 (peptide)
peptide: YAGFXPLW
modifications: D-Ala at 2; Nle (norleucine, written X) at 5; C-terminal 3,5-bis(trifluoromethyl)benzyl ester
notes: TFA salt; also called TY018
B2: TyrDAlaGlyPheSer(OGlu)ProLeuTrpNHBn(CF3)2 (TY042) (peptide)
peptide: Y[dA]GFSPLW-{NH(3,5-(CF3)2-benzyl)}
modifications: not fully specified (residue 5); printed as TyrDAlaGlyPheSer(OGlu)ProLeuTrpNHBn(CF3)2

Tests used:
[1] = biological target: T1, human NK1 receptor (human, UniProt P25103 1-407); assay: competition vs [3H]substance P, membranes of hNK1-transfected CHO cells
T1 construct: whole, on cells; Assayed as membrane preparations of transfected CHO cells; also called hNK1; human neurokinin-1 receptor
T1 sequence (P25103 whole entry): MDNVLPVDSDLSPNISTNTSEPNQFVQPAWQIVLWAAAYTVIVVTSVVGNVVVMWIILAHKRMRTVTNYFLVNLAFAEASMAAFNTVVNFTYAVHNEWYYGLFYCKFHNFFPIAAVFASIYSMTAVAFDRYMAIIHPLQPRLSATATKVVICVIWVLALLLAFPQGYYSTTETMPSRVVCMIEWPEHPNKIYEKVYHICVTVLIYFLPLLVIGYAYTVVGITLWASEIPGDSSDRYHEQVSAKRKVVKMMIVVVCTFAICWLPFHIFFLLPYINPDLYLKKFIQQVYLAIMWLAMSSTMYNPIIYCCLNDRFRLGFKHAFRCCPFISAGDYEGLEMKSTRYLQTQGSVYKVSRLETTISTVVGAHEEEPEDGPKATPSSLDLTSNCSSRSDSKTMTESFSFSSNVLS

[2] = biological target: T2, human δ opioid receptor (human, UniProt P41143 1-372); assay: radioligand competition vs [3H]DPDPE, membranes of hDOR cells
T2 construct: whole, on cells; Used as crude membrane preparations of the transfected cells; also called hDOR; DOR
T2 sequence (P41143 whole entry, stated change not applied): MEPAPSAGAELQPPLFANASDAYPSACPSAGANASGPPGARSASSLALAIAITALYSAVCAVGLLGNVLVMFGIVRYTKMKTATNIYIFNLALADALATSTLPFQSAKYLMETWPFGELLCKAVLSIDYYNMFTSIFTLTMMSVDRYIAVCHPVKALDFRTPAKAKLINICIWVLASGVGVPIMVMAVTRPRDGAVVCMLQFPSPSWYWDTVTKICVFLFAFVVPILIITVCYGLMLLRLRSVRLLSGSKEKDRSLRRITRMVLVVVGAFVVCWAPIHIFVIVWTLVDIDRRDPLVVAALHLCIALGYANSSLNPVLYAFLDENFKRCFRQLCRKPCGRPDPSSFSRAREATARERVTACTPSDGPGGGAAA

[3] = biological target: T3, rat NK1 receptor (rat, UniProt P14600 1-407); assay: radioligand competition vs [3H]substance P, membranes of rNK1 CHO cells
T3 construct: whole, on cells; Used as membrane preparations of transfected CHO cells; also called rNK1; rat neurokinin-1 receptor
T3 sequence (P14600 whole entry): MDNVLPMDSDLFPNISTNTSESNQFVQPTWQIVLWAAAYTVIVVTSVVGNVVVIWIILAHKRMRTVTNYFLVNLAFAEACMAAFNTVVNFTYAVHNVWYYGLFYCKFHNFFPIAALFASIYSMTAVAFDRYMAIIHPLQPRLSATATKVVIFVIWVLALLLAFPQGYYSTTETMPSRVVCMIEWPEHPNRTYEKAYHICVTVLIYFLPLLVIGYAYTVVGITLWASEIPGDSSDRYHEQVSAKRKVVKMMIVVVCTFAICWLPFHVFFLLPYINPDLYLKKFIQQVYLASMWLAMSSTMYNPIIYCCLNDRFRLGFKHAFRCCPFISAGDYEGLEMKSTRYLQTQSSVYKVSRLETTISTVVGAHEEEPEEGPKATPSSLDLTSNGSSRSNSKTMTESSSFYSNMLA

[4] = biological target: T4, rat µ opioid receptor (rat, UniProt P33535 1-398); assay: radioligand competition vs [3H]DAMGO, membranes of rMOR cells
T4 construct: whole, on cells; Used as crude membrane preparations of the transfected cells; also called rMOR; MOR
T4 sequence (P33535 whole entry): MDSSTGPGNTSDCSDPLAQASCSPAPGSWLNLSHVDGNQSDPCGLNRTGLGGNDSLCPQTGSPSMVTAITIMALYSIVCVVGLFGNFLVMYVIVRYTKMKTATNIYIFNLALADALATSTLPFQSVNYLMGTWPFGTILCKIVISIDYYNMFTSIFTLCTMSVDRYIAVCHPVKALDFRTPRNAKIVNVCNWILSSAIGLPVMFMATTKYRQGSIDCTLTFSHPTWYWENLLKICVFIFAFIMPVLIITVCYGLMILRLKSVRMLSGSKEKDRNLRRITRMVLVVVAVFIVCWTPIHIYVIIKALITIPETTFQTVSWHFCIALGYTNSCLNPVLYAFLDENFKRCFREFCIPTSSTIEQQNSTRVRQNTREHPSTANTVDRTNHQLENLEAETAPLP

[5] = biological target: T2, human δ opioid receptor; assay: cell-based or functional assay
[6] = biological target: µ opioid receptor of the guinea pig isolated ileum (guinea pig, UniProt P97266 1-98); assay: cell-based or functional assay
[7] = biological target: T4, rat µ opioid receptor; assay: cell-based or functional assay
[8] = biological target: guinea pig NK1 receptor (guinea pig, UniProt P30547 1-407); assay: cell-based or functional assay
Target sequence in this assay (P30547 whole entry): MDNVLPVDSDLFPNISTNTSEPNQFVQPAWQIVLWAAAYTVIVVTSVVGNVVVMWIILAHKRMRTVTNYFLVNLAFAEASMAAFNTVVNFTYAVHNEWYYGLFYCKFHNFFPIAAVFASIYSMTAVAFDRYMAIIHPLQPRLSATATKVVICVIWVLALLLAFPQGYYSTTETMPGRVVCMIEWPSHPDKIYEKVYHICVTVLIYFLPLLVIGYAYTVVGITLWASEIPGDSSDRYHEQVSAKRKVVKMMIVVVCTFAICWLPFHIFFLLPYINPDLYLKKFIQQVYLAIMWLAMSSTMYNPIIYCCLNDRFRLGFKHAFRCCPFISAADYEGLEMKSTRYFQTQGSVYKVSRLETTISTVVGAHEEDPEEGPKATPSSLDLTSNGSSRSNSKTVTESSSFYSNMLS

[9] = biological target: T5, human NK1 receptor (human, UniProt P25103 1-407); assay: radioligand competition vs [3H]substance P, membranes of hNK1 CHO cells
T5 construct: whole, on cells; Used as membrane preparations of transfected CHO cells; also called hNK1; human neurokinin-1 receptor
T5 sequence (P25103 whole entry): as the sequence (P25103 whole entry) above

[10] = biological target: T6, human δ opioid receptor (human, UniProt P41143 1-372); assay: competition vs [3H]DPDPE, membranes of hDOR-transfected HN9.10 cells
T6 construct: whole, on cells; Assayed as membrane preparations of transfected cells; also called hDOR; DOR
T6 sequence (P41143 whole entry, stated change not applied): as the sequence (P41143 whole entry, stated change not applied) above

[11] = biological target: T7, rat NK1 receptor (rat, UniProt P14600 1-407); assay: competition vs [3H]substance P, membranes of rNK1-transfected CHO cells
T7 construct: whole, on cells; Assayed as membrane preparations of transfected CHO cells; also called rNK1; rNK-1
T7 sequence (P14600 whole entry): as the sequence (P14600 whole entry) above

[12] = biological target: guinea pig NK1 receptor (guinea pig, UniProt P30547 1-407); assay: cell-based or functional assay; remark: listed apart in the source
Target sequence in this assay (P30547 whole entry): as the sequence (P30547 whole entry) above

[13] = biological target: µ opioid receptor of the guinea pig isolated ileum (guinea pig); assay: cell-based or functional assay
[14] = biological target: T8, rat µ opioid receptor (rat, UniProt P33535 1-398); assay: competition vs [3H]DAMGO, membranes of rMOR-transfected HN9.10 cells
T8 construct: whole, on cells; Assayed as membrane preparations of transfected cells; also called rMOR; MOR
T8 sequence (P33535 whole entry): as the sequence (P33535 whole entry) above

[15] = biological target: T8, rat µ opioid receptor; assay: cell-based or functional assay; remark: listed apart in the source
[16] = biological target: T6, human δ opioid receptor; assay: cell-based or functional assay; remark: listed apart in the source
[17] = biological target: T7, rat NK1 receptor; assay: competition vs [3H]substance P, membranes of rNK1-transfected CHO cells; remark: listed apart in the source
[18] = biological target: T9, rat µ opioid receptor (rat, UniProt P33535 1-398); assay: cell-based or functional assay; remark: listed apart in the source
T9 sequence (P33535 whole entry): as above

[19] = biological target: human δ opioid receptor (human, UniProt P41143 1-372); assay: cell-based or functional assay; remark: listed apart in the source
Target sequence in this assay (P41143 whole entry, stated change not applied): as the sequence (P41143 whole entry, stated change not applied) above

[20] = biological target: T10, rat NK1 receptor (rat, UniProt P14600 1-407); assay: competition vs [3H]Substance P, rNK1 CHO cell membranes
T10 construct: whole, on cells; membrane preparations of the transfected cells were used; also called rNK1; rNK-1
T10 sequence (P14600 whole entry): as the sequence (P14600 whole entry) above

[21] = biological target: T9, rat µ opioid receptor; assay: competition vs [3H]DAMGO, rMOR cell membranes

µ opioid receptor of the guinea pig isolated ileum, sequence (P97266 whole entry): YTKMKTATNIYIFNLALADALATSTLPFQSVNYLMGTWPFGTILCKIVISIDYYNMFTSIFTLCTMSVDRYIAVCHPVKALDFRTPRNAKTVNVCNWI

| Binder | Ki [2] [nM] | Ki [3] [nM] | Ki [4] [nM] | GTP binding hDOR EC50 [5] [nM] | GPI/LMMP opioid(mu) agonist IC50 [6] | GTP binding rMOR EC50 [7] [nM] | GPI/LMMP SP antagonist Ke [8] [nM] | Ki [9] [nM] | GTP binding rMOR Emax [7] [%] | GTP binding hDOR Emax [5] [%] | other results |
| --- | --- | --- | --- | --- | --- | --- | --- | --- | --- | --- | --- |
| H-Y[dA]GFPLW-{NMe(benzyl)} (also: TFA salt, TFA salt; also called TY010) [H-Tyr-D-Ala-Gly-Phe-Pro-Leu-Trp-NMe-Bzl] |  |  |  |  |  |  |  |  |  |  | Ki [1]: 1.6 nM; LogIC50 [1]: -8.5 |
| [Dmt][dA]GFMPLW-NHBn [DmtDAlaGlyPheMetProLeuTrpNHBn (TY034)] | 0.1 | 317 | 0.14 | 0.3 | 11.4 nM | 0.4 | 36.9 | 2.39 |  |  |  |
| [Dmt][dA]GF[Nle]PS(Glc)W-{NH‑Bn(CF3)2} [DmtDAlaGlyPheNleProSer(OGlu)TrpNHBn(CF3)2 (TY056)] |  | 10.1 | 1.9 |  | 24.9 nM | 44.9 | 1.2 | 0.0017 | 66 |  |  |
| Y[dA]GF[Nle]PS(Glc)W-{NH‑Bn(CF3)2} [TyrDAlaGlyPheNleProSer(OGlu)TrpNHBn(CF3)2 (TY041)] |  | 13.6 | 8 | 7.9 | 517 nM | 18 | 1.8 |  | 42 | 62 |  |
| H-Y[dA]GFPLW-NHBn (also: TFA salt, TFA salt; also called TY008) [H-Tyr-DAla-Gly-Phe-Pro-Leu-Trp-NH-Bzl] |  |  |  |  |  |  |  |  |  |  | Ki [1]: 14 nM |
| H-Y[dA]GFLPLW-{OBzl(3,5-(CF3)2)} (also: TFA salt, TFA salt; also called TY004) [H-Tyr-D-Ala-Gly-Phe-Leu-Pro-Leu-Trp-O-3,5-Bzl(CF3)2] |  |  |  |  |  |  |  |  |  |  | Ki [10]: 5 nM; LogIC50 [10]: -7.97; IC50 [11]: 20.9 nM; LogIC50 [11]: -7.7; Substance P GPI antagonist Ke [12]: 19.4 nM; GPI (µ) opioid agonist IC50 [13]: 341 nM; Ki [14]: 23.3 nM; [35S]GTP-γ-S binding Emax [15]: 46%; [35S]GTP-γ-S binding EC50 [16]: 9.6 nM; [35S]GTP-γ-S binding Emax [16]: 44%; [35S]GTP-γ-S binding LogEC50 [16]: -8.09 |
| Y[dC]GF[Nle]PCW-{NH(3,5-(CF3)2-benzyl)} (disulfide 2-7, also called [D-Cys2, Cys7]TY027) [Tyr[DCysGlyPheNleProCys]TrpNHBn(CF3)2 (TY035)] | 1.29 |  | 79.2 | 0.02 | 1010 nM | 36 | 2.2 | 0.091 | 39 | 11 |  |
| B1 |  |  |  |  |  |  |  |  |  |  | Ki [10]: 1.8 nM; LogIC50 [10]: -8.42; Substance P GPI antagonist Ke [12]: 7.9 nM; GPI (µ) opioid agonist IC50 [13]: 372 nM; [35S]GTP-γ-S binding EC50 [16]: 4 nM; [35S]GTP-γ-S binding Emax [16]: 129%; [35S]GTP-γ-S binding LogEC50 [16]: -8.4 |
| H-Y[dA]GFPLW-{NMe‑Bn(CF3)2} (also: TFA salt, TFA salt; also called TY013) [H-Tyr-D-Ala-Gly-Phe-Pro-Leu-Trp-NMe-3,5-Bzl(CF3)2] |  |  |  |  |  |  |  |  |  |  | LogIC50 [1]: -8.5; Ki [17]: 6.1 nM |
| H-Y[dA]GFPLW-{NH(3,5-(CF3)2-benzyl)} (also: TFA salt, TFA salt; also called TY012) [H-Tyr-D-Ala-Gly-Phe-Pro-Leu-Trp-NH-3,5-Bzl(CF3)2] |  |  |  |  |  |  |  |  |  |  | Ki [1]: 0.61 nM; Ki [17]: 33 nM; LogIC50 [17]: -7 |
| Y[dA]GF[βAla]W-{O‑Bzl(CF3)2} (also called NP32) [Tyr-DAla-Gly-Phe-β-Ala-Trp-O-Bzl(CF3)2] |  |  |  |  |  |  |  |  |  |  | GTP EMax [18]: 70; GTP EMax [19]: 87; Ki [20]: 1.6 nM; Ki [21]: 11.2 nM |
| H-Y[dA]GF[Met(O)]PLW-{OBzl(3,5-(CF3)2)} (also: TFA salt, TFA salt; also called TY023) [H-Tyr-D-Ala-Gly-Phe-Met(O)-Pro-Leu-Trp-O-3,5-Bzl(CF3)2] |  |  |  |  |  |  |  |  |  |  | Ki [10]: 4.8 nM; LogIC50 [10]: -7.92; IC50 [11]: 54.5 nM; LogIC50 [11]: -7.27; Substance P GPI antagonist Ke [12]: 7.8 nM; GPI (µ) opioid agonist IC50 [13]: 154 nM; [35S]GTP-γ-S binding Emax [16]: 53%; [35S]GTP-γ-S binding LogEC50 [16]: -8.73 |
| H-Y[dA]GFPLW-{OBzl(3,5-(CF3)2)} (also: TFA salt, TFA salt; also called TY001) [H-Tyr-DAla-Gly-Phe-Pro-Leu-Trp-O-3,5-Bzl(CF3)2] |  |  |  |  |  |  |  |  |  |  | Ki [1]: 0.0023 nM; LogIC50 [1]: -11.3; Ki [17]: 1.6 nM; LogIC50 [17]: -8.3 |
| H-Y[dA]GFPLW-OBn (also: TFA salt, TFA salt; also called TY011) [H-Tyr-DAla-Gly-Phe-Pro-Leu-Trp-O-Bzl] |  |  |  |  |  |  |  |  |  |  | Ki [1]: 100 nM; LogIC50 [1]: -6.7; Ki [17]: 270 nM; LogIC50 [17]: -6.1 |
| Y[dA]GFGW-{O‑Bzl(CF3)2} [Tyr-DAla-Gly-Phe-Gly-Trp-O-Bzl(CF3)2] |  |  |  |  |  |  |  |  |  |  | GTP EMax [18]: 36; GTP EMax [19]: 87 |
| Y[dA]GF[dF]PLW-{OBzl(3,5-(CF3)2)} [TyrDAlaGlyPheDPheProLeuTrpOBn(CF3)2 (TY007)] | 110 | 3 | 410 | 16.7 | 9.2% | 345 | 69.6 | 1.3 | 23.6 | 22.9 |  |
| Y[dA]GFFPLW-OBn [TyrDAlaGlyPhePheProLeuTrpOBn (TY014)] | 11.5 | 124 | 36.3 | 25.6 |  | 76 |  | 0.265 | 72.3 | 137 |  |
| Y[dA]GFGPLW-{OBzl(3,5-(CF3)2)} [TyrDAlaGlyPheGlyProLeuTrpOBn(CF3)2 (TY006)] | 36.1 | 1 | 27 | 50.2 | 384 nM | 41.7 | 5.4 | 0.016 | 35.9 | 33.6 |  |
| Y[dA]GFFPLW-{OBzl(3,5-(CF3)2)} [TyrDAlaGlyPhePheProLeuTrpOBn(CF3)2 (TY003)] | 14.6 | 0.88 | 28.3 | 20.8 | 6.6 % @ 1 uM | 58.7 | 14.4 | 0.021 | 36.3 | 39 |  |
| Y[dA]GFLPLW-{OBzl(3,5-(CF3)2)} [TyrDAlaGlyPheLeuProLeuTrpOBn(CF3)2 (TY004)] | 5 | 0.8 | 23.3 | 9.6 | 341 nM |  | 19.4 | 0.016 | 44.5 | 42.5 |  |
| B2 | 58.5 | 1.45 | 256 | 51.9 | 1890 nM | 176 | 2.83 | 0.00027 | 28 | 47 |  |
